B1: F-BAR domain only protein 1 (Homo sapiens), O14526 (parent)
chain: MSYFGEHFWGEKNHGFEVLYHSVKQGPISTKELADFIRERATIEETYSKAMAKLSKLASNGTPMGTFAPLWEVFRVSSDKLALCHLELTRKLQDLIKDVLRYGEEQLKTHKKCKEEVVSTLDAVQVLSGVSQLLPKSRENYLNRCMDQERLRRESTSQKEMDKAETKTKKAAESLRRSVEKYNSARADFEQKMLDSALRFQAMEETHLRHMKALLGSYAHSVEDTHVQIGQVHEEFKQNIENVSVEMLLRKFAESKGTGREKPGPLDFEAYSAAALQEAMKRLRGAKAFRLPGLSRREREPEPPAAVDFLEPDSGTCPEVDEEGFTVRPDVTQNSTAEPSRFSSSDSDFDDEEPRKFYVHIKPAPARAPACSPEAAAAQLRATAGSLILPPGPGGTMKRHSSRDAAGKPQRPRSAPRTSSCAERLQSEEQVSKNLFGPPLESAFDHEDFTGSSSLGFTSSPSPFSSSSPENVEDSGLDSPSHAAPGPSPDSWVPRPGTPQSPPSCRAPPPEARGIRAPPLPDSPQPLASSPGPWGLEALAGGDLMPAPADPTAREGLAAPPRRLRSRKVSCPLTRSNGDLSRSLSPSPLGSSAASTALERPSFLSQTGHGVSRGPSPVVLGSQDALPIATAFTEYVHAYFRGHSPSCLARVTGELTMTFPAGIVRVFSGTPPPPVLSFRLVHTTAIEHFQPNADLLFSDPSQSDPETKDFWLNMAALTEALQRQAEQNPTASYYNVVLLRYQFSRPGPQSVPLQLSAHWQCGATLTQVSVEYGYRPGATAVPTPLTNVQILLPVGEPVTNVRLQPAATWNLEEKRLTWRLPDVSEAGGSGRLSASWEPLSGPSTPSPVAAQFTSEGTTLSGVDLELVGSGYRMSLVKRRFATGMYLVSC
partner: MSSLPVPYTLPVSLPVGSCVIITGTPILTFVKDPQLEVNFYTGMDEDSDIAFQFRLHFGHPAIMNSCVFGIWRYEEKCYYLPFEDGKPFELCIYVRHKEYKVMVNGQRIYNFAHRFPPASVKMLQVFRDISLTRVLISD
B2: Ribonuclease P protein subunit p25-like protein (Homo sapiens), Q8N5L8 (parent)
chain: MEHYRKAGSVELPAPSPMPQLPPDTLEMRVRDGSKIRNLLGLALGRLEGGSARHVVFSGSGRAAGKAVSCAEIVKRRVPGLHQLTKLRFLQTEDSWVPASPDTGLDPLTVRRHVPAVWVLLSRDPLDPNECGYQPPGAPPGLGSMPSSSCGPRSRRRARDTRS
partner: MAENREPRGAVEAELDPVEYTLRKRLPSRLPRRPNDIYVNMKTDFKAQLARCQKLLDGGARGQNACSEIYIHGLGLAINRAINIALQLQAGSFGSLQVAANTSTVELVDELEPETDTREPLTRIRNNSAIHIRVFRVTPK
B3: Protein FAM9B (Homo sapiens), Q8IZU0 (parent)
chain: MAAWGKKHAGKDPVRDECEERNRFTETREEDVTDEHGEREPFAETDEHTGANTKKPEDTAEDLTAKRKRMKMDKTCSKTKNKSKHALRKKQLKRQKRDYIHSLKLLNVLEEYITDEQKEEEEEEGEEEELIRIFQEQQKKWQQYRSVRRERLKEMKLLRDQFVKALEDFEDLCDRVFSDEDSELDN
partner: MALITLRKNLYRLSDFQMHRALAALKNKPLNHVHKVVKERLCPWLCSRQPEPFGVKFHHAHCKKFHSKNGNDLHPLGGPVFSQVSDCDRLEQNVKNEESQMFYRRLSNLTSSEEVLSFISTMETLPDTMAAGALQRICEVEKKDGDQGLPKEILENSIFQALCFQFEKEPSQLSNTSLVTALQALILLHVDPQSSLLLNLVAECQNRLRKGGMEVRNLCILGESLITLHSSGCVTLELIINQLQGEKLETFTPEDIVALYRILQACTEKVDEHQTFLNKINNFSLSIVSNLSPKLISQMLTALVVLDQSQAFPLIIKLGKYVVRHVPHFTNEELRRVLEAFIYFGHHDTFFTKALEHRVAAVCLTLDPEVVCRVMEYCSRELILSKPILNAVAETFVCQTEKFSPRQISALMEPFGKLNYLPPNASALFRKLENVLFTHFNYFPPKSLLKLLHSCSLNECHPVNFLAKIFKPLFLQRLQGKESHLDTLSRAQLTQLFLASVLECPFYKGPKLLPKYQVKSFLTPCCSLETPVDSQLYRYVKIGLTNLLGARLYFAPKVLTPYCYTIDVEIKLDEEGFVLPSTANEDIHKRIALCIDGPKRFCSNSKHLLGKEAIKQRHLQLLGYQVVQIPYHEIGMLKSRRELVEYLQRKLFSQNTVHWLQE
B4: Hematopoietic lineage cell-specific protein (Homo sapiens), P14317 (parent)
chain: MWKSVVGHDVSVSVETQGDDWDTDPDFVNDISEKEQRWGAKTIEGSGRTEHINIHQLRNKVSEEHDVLRKKEMESGPKASHGYGGRFGVERDRMDKSAVGHEYVAEVEKHSSQTDAAKGFGGKYGVERDRADKSAVGFDYKGEVEKHTSQKDYSRGFGGRYGVEKDKWDKAALGYDYKGETEKHESQRDYAKGFGGQYGIQKDRVDKSAVGFNEMEAPTTAYKKTTPIEAASSGTRGLKAKFESMAEEKRKREEEEKAQQVARRQQERKAVTKRSPEAPQPVIAMEEPAVPAPLPKKISSEAWPPVGTPPSSESEPVRTSREHPVPLLPIRQTLPEDNEEPPALPPRTLEGLQVEEEPVYEAEPEPEPEPEPEPENDYEDVEEMDRHEQEDEPEGDYEEVLEPEDSSFSSALAGSSGCPAGAGAGAVALGISAVAVYDYQGEGSDELSFDPDDVITDIEMVDEGWWRGRCHGHFGLFPANYVKLLE
partner: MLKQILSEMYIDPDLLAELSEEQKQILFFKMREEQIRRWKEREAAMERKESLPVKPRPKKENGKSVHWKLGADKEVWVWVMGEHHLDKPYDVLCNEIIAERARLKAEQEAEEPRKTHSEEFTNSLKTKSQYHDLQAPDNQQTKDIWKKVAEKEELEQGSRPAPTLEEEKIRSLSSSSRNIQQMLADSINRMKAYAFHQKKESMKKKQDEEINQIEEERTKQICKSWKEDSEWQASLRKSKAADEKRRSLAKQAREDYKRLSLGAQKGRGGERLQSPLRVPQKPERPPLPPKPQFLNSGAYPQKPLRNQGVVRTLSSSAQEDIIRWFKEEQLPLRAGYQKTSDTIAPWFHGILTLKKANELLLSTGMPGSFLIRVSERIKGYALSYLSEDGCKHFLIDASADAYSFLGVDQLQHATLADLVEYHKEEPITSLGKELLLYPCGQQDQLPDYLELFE

The record followed here is IntAct's records for PubMed 31515488.

The variants in one test derive from B1. The note with it: with ppl13_human LGALS14, Q8TCE9.
E423G: the “effect of a mutation on the interaction” value was “with no effect”.

The next test covers variants of B2. The conditions noted are these: with pop7_human POP7, O75817.
Take D127N: the “effect of a mutation on the interaction” value is listed as “with no effect”.

Another test covers variants of B3. The note with it: with fakd3_human FASTKD3, Q14CZ7.
Take R23H: the “effect of a mutation on the interaction” value is “with no effect”.

A further test covers variants of B4. The conditions noted are these: with sh24a_human SH2D4A.
In the case of P218L, the “effect of a mutation on the interaction” value is “with no effect”.

Consider W21C, for which the “effect of a mutation on the interaction” value is reported as “with no effect”.

As for E361K, the “effect of a mutation on the interaction” value was “with no effect”.
